# In patent US20240117018A1:
# Tests used:
# Experiment in all cases: cell-based or functional assay
# [1] = biological target: HIV-1 Env of pseudovirus WEAU_d15_410_787 (HIV-1)
# [2] = biological target: HIV-1 Env of pseudovirus CNE5 (HIV-1)
# [3] = biological target: HIV-1 Env of pseudovirus 0260.v5.c36 (HIV-1)
# [4] = biological target: HIV-1 Env of pseudovirus T250-4 (HIV-1)
# [5] = biological target: HIV-1 Env of pseudovirus TRO.11 (HIV-1)
# [6] = biological target: HIV-1 Env of pseudovirus Du156.12 (HIV-1)
# [7] = biological target: HIV-1 Env of pseudovirus 6240_08_TA5_4622 (HIV-1)
# [8] = biological target: HIV-1 Env of pseudovirus ZM214M.PL15 (HIV-1)
# [9] = biological target: HIV-1 Env of pseudovirus 7030102001E5(Rev-) (HIV-1)
# [10] = biological target: HIV-1 Env of pseudovirus ZM53M.PB12 (HIV-1)
# [11] = biological target: HIV-1 Env of pseudovirus CNE20 (HIV-1)
# [12] = biological target: HIV-1 Env of pseudovirus 62357_14_D3_4589 (HIV-1)
# [13] = biological target: HIV-1 Env of pseudovirus CNE53 (HIV-1)
# [14] = biological target: HIV-1 Env of pseudovirus 6535.3 (HIV-1)
# [15] = biological target: HIV-1 Env of pseudovirus SC422661.8 (HIV-1)
# [16] = biological target: HIV-1 Env of pseudovirus Q461.e2 (HIV-1)
# [17] = biological target: HIV-1 Env of pseudovirus Du172.17 (HIV-1)
# [18] = biological target: HIV-1 Env of pseudovirus Q769.d22 (HIV-1)
# [19] = biological target: HIV-1 Env of pseudovirus Q23.17 (HIV-1)
# [20] = biological target: HIV-1 Env of pseudovirus ZM249M.PL1 (HIV-1)
# [21] = biological target: HIV-1 Env of pseudovirus Ce2010_F5 (HIV-1)
# [22] = biological target: HIV-1 Env of pseudovirus ZM247v1(Rev-) (HIV-1)
# [23] = biological target: HIV-1 Env of pseudovirus 1012_11_TC21_3257 (HIV-1)
# [24] = biological target: HIV-1 Env of pseudovirus ZM135M.PL10a (HIV-1)
# [25] = biological target: HIV-1 Env of pseudovirus 249M B10 (HIV-1)
# [26] = biological target: HIV-1 Env of pseudovirus HIV-001428-2.42 (HIV-1)
# [27] = biological target: HIV-1 Env of pseudovirus CNE17 (HIV-1)
# [28] = biological target: HIV-1 Env of pseudovirus 1006_11_C3_1601 (HIV-1)
# [29] = biological target: HIV-1 Env of pseudovirus TRJO4551.58 (HIV-1)
# [30] = biological target: HIV-1 Env of pseudovirus ZM233M.PB6 (HIV-1)
# [31] = biological target: HIV-1 Env of pseudovirus CNE8 (HIV-1)
# [32] = biological target: HIV-1 Env of pseudovirus RHPA4259.7 (HIV-1)
# [33] = biological target: HIV-1 Env of pseudovirus Q259.d2.17 (HIV-1)
# [34] = biological target: HIV-1 Env of pseudovirus Ce0682_E4 (HIV-1)
# [35] = biological target: HIV-1 Env of pseudovirus HIV-16055-2.3 (HIV-1)
# [36] = biological target: HIV-1 Env of pseudovirus AC10.0.29 (HIV-1)
# [37] = biological target: HIV-1 Env of pseudovirus Ce2060_G9 (HIV-1)
substance,measurement,setting,value
PGDM1400 (antibody),neutralization IC50,[1],0.103 µg/mL
same,neutralization IC80,[1],1.37 µg/mL
same,IC50 (Titer in TZM.bl cells),[2],< 0.001 µg/mL
same,IC80 (Titer in TZM.bl cells),[2],< 0.001 µg/mL
same,neutralization IC50,[3],0.033 µg/mL
same,neutralization IC80,[3],0.175 µg/mL
same,neutralization IC50,[4],< 0.001 µg/mL
same,neutralization IC80,[4],< 0.001 µg/mL
same,neutralization IC50,[5],0.283 µg/mL
same,neutralization IC80,[5],1.38 µg/mL
same,neutralization IC50,[6],0.002 µg/mL
same,neutralization IC80,[6],0.008 µg/mL
same,neutralization IC50,[7],> 50 µg/mL
same,neutralization IC80,[7],> 50 µg/mL
same,neutralization IC50,[8],> 50 µg/mL
same,neutralization IC80,[8],> 50 µg/mL
same,neutralization IC50,[9],> 50 µg/mL
same,neutralization IC80,[9],> 50 µg/mL
same,neutralization IC50,[10],0.002 µg/mL
same,neutralization IC80,[10],0.011 µg/mL
same,neutralization IC50,[11],0.004 µg/mL
same,neutralization IC80,[11],0.014 µg/mL
same,neutralization IC50,[12],> 50 µg/mL
same,neutralization IC80,[12],> 50 µg/mL
same,neutralization IC50,[13],0.077 µg/mL
same,neutralization IC80,[13],0.246 µg/mL
same,neutralization IC50,[14],> 50 µg/mL
same,neutralization IC80,[14],> 50 µg/mL
same,neutralization IC50,[15],0.436 µg/mL
same,neutralization IC80,[15],6.53 µg/mL
same,neutralization IC50,[16],0.089 µg/mL
same,neutralization IC80,[16],0.572 µg/mL
same,neutralization IC50,[17],5.18 µg/mL
same,neutralization IC80,[17],22 µg/mL
same,neutralization IC50,[18],0.002 µg/mL
same,neutralization IC80,[18],0.018 µg/mL
same,neutralization IC50,[19],< 0.001 µg/mL
same,neutralization IC80,[19],0.003 µg/mL
same,neutralization IC50,[20],0.016 µg/mL
same,neutralization IC80,[20],0.701 µg/mL
same,neutralization IC50,[21],> 50 µg/mL
same,neutralization IC80,[21],> 50 µg/mL
same,neutralization IC50,[22],0.019 µg/mL
same,neutralization IC80,[22],0.051 µg/mL
same,neutralization IC50,[23],0.049 µg/mL
same,neutralization IC80,[23],0.23 µg/mL
same,neutralization IC50,[24],> 50 µg/mL
same,neutralization IC80,[24],> 50 µg/mL
same,neutralization IC50,[25],0.039 µg/mL
same,neutralization IC80,[25],0.786 µg/mL
same,neutralization IC50,[26],< 0.001 µg/mL
same,neutralization IC80,[26],0.027 µg/mL
same,neutralization IC50,[27],0.007 µg/mL
same,neutralization IC80,[27],0.021 µg/mL
same,neutralization IC50,[28],4.32 µg/mL
same,neutralization IC80,[28],> 50 µg/mL
same,neutralization IC50,[29],> 50 µg/mL
same,neutralization IC80,[29],> 50 µg/mL
same,neutralization IC50,[30],< 0.001 µg/mL
same,neutralization IC80,[30],0.001 µg/mL
same,IC50 (Titer in TZM.bl cells),[31],< 0.001 µg/mL
same,IC80 (Titer in TZM.bl cells),[31],0.01 µg/mL
same,neutralization IC50,[32],0.447 µg/mL
same,neutralization IC80,[32],2.19 µg/mL
same,neutralization IC50,[33],0.166 µg/mL
same,neutralization IC80,[33],> 50 µg/mL
same,neutralization IC50,[34],0.01 µg/mL
same,neutralization IC80,[34],0.043 µg/mL
same,neutralization IC50,[35],< 0.001 µg/mL
same,neutralization IC80,[35],0.003 µg/mL
same,neutralization IC50,[36],0.105 µg/mL
same,neutralization IC80,[36],0.869 µg/mL
same,neutralization IC50,[37],0.001 µg/mL
same,neutralization IC80,[37],0.007 µg/mL
